Values quoted from earlier work in patent US20150246140A1, “COMPOSITIONS AND METHODS FOR MODULATING SLEEP AND WAKEFULNESS” (California Institute of Technology, priority 2014, published 2015).

How the values were obtained:
NPR-22 = target: T1, NPR-22 (Caenorhabditis elegans, UniProt Q59E83); settings: FLP-13 peptides P1-P9, FIG. 6 legend
T1 sequence (Q59E83 1-434): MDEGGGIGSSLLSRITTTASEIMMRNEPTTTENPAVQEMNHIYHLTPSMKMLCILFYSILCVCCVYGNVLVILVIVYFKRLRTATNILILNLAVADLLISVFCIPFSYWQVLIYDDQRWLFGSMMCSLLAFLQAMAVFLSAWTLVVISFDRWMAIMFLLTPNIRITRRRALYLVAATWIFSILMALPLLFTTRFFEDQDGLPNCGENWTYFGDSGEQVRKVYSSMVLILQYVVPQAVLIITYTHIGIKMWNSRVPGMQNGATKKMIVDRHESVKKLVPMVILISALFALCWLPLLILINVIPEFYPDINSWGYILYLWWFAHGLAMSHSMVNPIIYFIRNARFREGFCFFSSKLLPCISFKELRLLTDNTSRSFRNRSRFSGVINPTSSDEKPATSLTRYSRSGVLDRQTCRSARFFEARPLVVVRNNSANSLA

A. suum muscle strips = settings: FLP-13 peptides P1-P9, FIG. 6 legend

| Sequence | activate calcium response via NPR-22 using the fluorescence assay (NPR-22) | effect on A. suum muscle strips (A. suum muscle strips) |
| --- | --- | --- |
| SPSAVPLIRF [C. elegans RFamide peptide of gene flp-13] | can activate calcium response | excitatory effect |
| AADGAPLIRF [C. elegans RFamide peptide of gene flp-13; P2 and P4 are repeated copies] | can activate calcium response | inhibitory effects |
| ASSAPLIRF [C. elegans RFamide peptide of gene flp-13] | can activate calcium response | – |
| APEASPLIRF [C. elegans RFamide peptide of gene flp-13; P3 and P5 are repeated copies] | – | inhibitory effects |
| SAAAPLIRF [C. elegans RFamide peptide of gene flp-13] | can activate calcium response | – |
| ASPSAPLIRF [C. elegans RFamide peptide of gene flp-13] | can activate calcium response | – |
